Source: publication PMC2782912

Experiments:
[1] = molecular target: HIV-1 capsid protein CA (Human immunodeficiency virus 1) (UniProt O93182); settings: cited from earlier work
[2] = molecular target: HIV-1 capsid protein C-terminal domain, CA-CTD (Met144-Leu231) (HIV-1); assay: NMR titration

Chain of HIV-1 capsid protein CA (O93182 133-363): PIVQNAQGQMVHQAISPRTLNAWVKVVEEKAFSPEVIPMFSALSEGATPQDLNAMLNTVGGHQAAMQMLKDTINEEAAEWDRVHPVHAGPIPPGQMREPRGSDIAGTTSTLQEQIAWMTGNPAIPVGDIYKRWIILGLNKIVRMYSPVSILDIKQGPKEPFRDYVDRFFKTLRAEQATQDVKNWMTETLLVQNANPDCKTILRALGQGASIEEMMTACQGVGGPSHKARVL

Substance	Kd [1]	Kd [2]
HIV-1 capsid protein CA (from UniProt O93182)	18 µM	–
HIV-1 capsid protein C-terminal domain, CA-CTD (Met144-Leu231) (domain or fragment)	–	9.8 µM
